Test results from patent US20030165997, “Zinc finger domain libraries” (published 2003).

Legend:
Assay in all cases: cell_activity; HEK 293 luciferase
Conditions in all cases: tags: HA, NLS
[1] = target: ZFP 48 RDHT-RSHR-RDER1 (Homo sapiens)
Procedure: (§1) The in vivo activity assay for a particular three-finger protein was carried out as follows. HEK 293 cells were transfected with four plasmids: 14 ng of a plasmid expressing the particular three-finger protein; 14 ng of the reporter plasmid described above; 70 ng of a plasmid that expresses GAL4-VP 16; and 1.4 ng of a plasmid that expresses Renillar luciferase. The GAL4-VP 16 activates transcription of the minimal synthetic promoter in the reporter so that the repression effected by a particular three-finger protein could be clearly detected and compared to other three-finger proteins. The plasmid expressing Renillar luciferase provides a control of transfection efficiency.
(§2) Lipofectamine (Gibco-BRL) was used for the transfection procedures. Cells were transfected at 30-50% confluency in wells of a 96 well plate. The cells were incubated for two days prior to harvesting for the luciferase assay. Then luciferase activities were measured using the Dual-Luciferase™ Reporter Assay System (Promega). The observed firefly luciferase activity was normalized using the observed level of Renilla luciferase. The extent of repression or “fold-repression” was calculated by dividing a value for normalized reporter expression in the absence of a zinc finger protein by a value for normalized reporter expression in the presence of the zinc finger protein.
(§3) A total of 153 three-finger chimeric proteins were constructed from both the “zinc finger protein-first” and the “target site-first” approaches. These proteins were tested using the transient cotransfection assay described in Example 68.

[2] = target: ZFP 36 RSNR-VSSR-RSNR (Homo sapiens)
Procedure: as §1, §2, §3

[3] = target: ZFP 50 RSHR-RDER1-QSNV2 (Homo sapiens)
Procedure: as §1, §2, §3

[4] = target: ZFP 57 QSHR2-CSNR1-QSHT (Homo sapiens)
Procedure: as §1, §2, §3

[5] = target: ZFP 64 VSSR-RSHR-ISNR (Homo sapiens)
Procedure: as §1, §2, §3

[6] = target: ZFP 47 RSHR-QSHR2-VSTR (Homo sapiens)
Procedure: as §1, §2, §3

[7] = target: ZFP 56 RSNR-VSTR-RSHR (Homo sapiens)
Procedure: as §1, §2, §3

[8] = target: ZFP 55 QSNV2-QSHR2-QSNR3 (Homo sapiens)
Procedure: as §1, §2, §3

[9] = target: ZFP 52 QSHR2-QSHT-RSNR (Homo sapiens)
Procedure: as §1, §2, §3

[10] = target: ZFP 35 VSSR-QSHT-RSHR (Homo sapiens)
Procedure: as §1, §2, §3

[11] = target: ZFP 46 HSNK-QSHT-RSNR (Homo sapiens)
Procedure: as §1, §2, §3

[12] = target: ZFP 58 VSNV-QSHR2-VSTR (Homo sapiens)
Procedure: as §1, §2, §3

[13] = target: ZFP 43 QSSR1-QSNR3-QSHR2 (Homo sapiens)
Procedure: as §1, §2, §3

[14] = target: ZFP 41 QSNR3-RSNR-RSHR (Homo sapiens)
Procedure: as §1, §2, §3

[15] = target: ZFP 65 RSNR-RDER1-RSHR (Homo sapiens)
Procedure: as §1, §2, §3

[16] = target: ZFP 39 VSTR-RSNR-QSHR2 (Homo sapiens)
Procedure: as §1, §2, §3

[17] = target: ZFP 45 HSNK-QSNV2-VSSR (Homo sapiens)
Procedure: as §1, §2, §3

[18] = target: ZFP 51 VSNV-QSNV2-QSHT (Homo sapiens)
Procedure: as §1, §2, §3

[19] = target: ZFP 60 QSNR3-QSSR1-QSNV2 (Homo sapiens)
Procedure: as §1, §2, §3

[20] = target: ZFP 62 RDER1-QSSR1-VSTR (Homo sapiens)
Procedure: as §1, §2, §3

[21] = target: ZFP 53 QSHR2-RDHT-CSNR1 (Homo sapiens)
Procedure: as §1, §2, §3

[22] = target: ZFP 49 RSHR-QSNV2-QSHT (Homo sapiens)
Procedure: as §1, §2, §3

[23] = target: ZFP 42 RDHT-QSHR2-QSHT (Homo sapiens)
Procedure: as §1, §2, §3

Chain of ZFP 36 RSNR-VSSR-RSNR (Homo sapiens) (chain, as listed by the source): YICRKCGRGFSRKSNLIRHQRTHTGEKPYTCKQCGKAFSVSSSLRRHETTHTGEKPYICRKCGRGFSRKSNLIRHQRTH
Chain of ZFP 57 QSHR2-CSNR1-QSHT (Homo sapiens) (chain, as listed by the source): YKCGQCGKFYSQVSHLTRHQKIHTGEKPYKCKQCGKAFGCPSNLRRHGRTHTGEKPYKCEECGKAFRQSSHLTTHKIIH
Chain of ZFP 53 QSHR2-RDHT-CSNR1 (Homo sapiens) (chain, as listed by the source): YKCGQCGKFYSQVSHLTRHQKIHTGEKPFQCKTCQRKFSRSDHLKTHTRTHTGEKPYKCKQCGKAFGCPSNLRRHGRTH
Chain of ZFP 52 QSHR2-QSHT-RSNR (Homo sapiens) (chain, as listed by the source): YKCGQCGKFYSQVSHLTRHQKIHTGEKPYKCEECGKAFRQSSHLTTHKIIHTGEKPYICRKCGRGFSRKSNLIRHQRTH
Chain of ZFP 64 VSSR-RSHR-ISNR (Homo sapiens) (chain, as listed by the source): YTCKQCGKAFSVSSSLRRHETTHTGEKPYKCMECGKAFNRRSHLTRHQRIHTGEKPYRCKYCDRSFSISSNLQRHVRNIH
Chain of ZFP 65 RSNR-RDER1-RSHR (Homo sapiens) (chain, as listed by the source): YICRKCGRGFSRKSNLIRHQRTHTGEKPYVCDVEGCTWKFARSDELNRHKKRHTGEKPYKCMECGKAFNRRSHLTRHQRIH
Chain of ZFP 51 VSNV-QSNV2-QSHT (Homo sapiens) (chain, as listed by the source): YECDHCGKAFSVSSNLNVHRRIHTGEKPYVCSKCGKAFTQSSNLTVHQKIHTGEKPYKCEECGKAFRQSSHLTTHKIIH
Chain of ZFP 43 QSSR1-QSNR3-QSHR2 (Homo sapiens) (chain, as listed by the source): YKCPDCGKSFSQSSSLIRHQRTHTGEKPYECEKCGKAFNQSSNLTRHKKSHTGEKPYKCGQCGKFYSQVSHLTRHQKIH
Chain of ZFP 35 VSSR-QSHT-RSHR (Homo sapiens) (chain, as listed by the source): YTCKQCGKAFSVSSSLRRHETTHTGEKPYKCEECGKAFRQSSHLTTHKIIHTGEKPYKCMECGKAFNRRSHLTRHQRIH
Chain of ZFP 49 RSHR-QSNV2-QSHT (Homo sapiens) (chain, as listed by the source): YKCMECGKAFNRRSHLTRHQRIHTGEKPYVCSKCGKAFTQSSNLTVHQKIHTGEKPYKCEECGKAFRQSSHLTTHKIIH
Chain of ZFP 45 HSNK-QSNV2-VSSR (Homo sapiens) (chain, as listed by the source): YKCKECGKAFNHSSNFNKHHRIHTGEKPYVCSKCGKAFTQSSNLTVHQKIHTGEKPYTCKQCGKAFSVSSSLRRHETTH
Chain of ZFP 47 RSHR-QSHR2-VSTR (Homo sapiens) (chain, as listed by the source): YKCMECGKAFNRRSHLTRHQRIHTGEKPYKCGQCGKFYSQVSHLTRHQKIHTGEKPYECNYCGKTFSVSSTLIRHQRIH
Chain of ZFP 56 RSNR-VSTR-RSHR (Homo sapiens) (chain, as listed by the source): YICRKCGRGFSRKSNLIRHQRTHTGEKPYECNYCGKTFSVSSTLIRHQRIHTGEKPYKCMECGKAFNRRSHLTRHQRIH
Chain of ZFP 58 VSNV-QSHR2-VSTR (Homo sapiens) (chain, as listed by the source): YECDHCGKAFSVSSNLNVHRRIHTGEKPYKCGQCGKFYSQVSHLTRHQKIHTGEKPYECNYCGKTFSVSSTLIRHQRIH
Chain of ZFP 60 QSNR3-QSSR1-QSNV2 (Homo sapiens) (chain, as listed by the source): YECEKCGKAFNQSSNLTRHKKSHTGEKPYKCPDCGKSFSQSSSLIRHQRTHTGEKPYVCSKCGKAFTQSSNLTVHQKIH
Chain of ZFP 39 VSTR-RSNR-QSHR2 (Homo sapiens) (chain, as listed by the source): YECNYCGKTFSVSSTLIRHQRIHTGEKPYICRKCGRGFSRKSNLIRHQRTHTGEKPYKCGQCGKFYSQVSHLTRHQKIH
Chain of ZFP 42 RDHT-QSHR2-QSHT (Homo sapiens) (chain, as listed by the source): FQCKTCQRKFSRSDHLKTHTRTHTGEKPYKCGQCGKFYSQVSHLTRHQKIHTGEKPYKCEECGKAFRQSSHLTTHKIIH
Chain of ZFP 48 RDHT-RSHR-RDER1 (Homo sapiens) (chain, as listed by the source): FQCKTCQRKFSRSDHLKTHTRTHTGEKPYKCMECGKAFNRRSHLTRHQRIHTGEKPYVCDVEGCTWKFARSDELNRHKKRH
Chain of ZFP 62 RDER1-QSSR1-VSTR (Homo sapiens) (chain, as listed by the source): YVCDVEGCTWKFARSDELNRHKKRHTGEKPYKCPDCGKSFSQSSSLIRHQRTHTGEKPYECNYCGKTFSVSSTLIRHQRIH
Chain of ZFP 50 RSHR-RDER1-QSNV2 (Homo sapiens) (chain, as listed by the source): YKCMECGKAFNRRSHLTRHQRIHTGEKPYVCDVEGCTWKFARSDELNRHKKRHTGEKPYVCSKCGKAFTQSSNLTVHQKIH
Chain of ZFP 41 QSNR3-RSNR-RSHR (Homo sapiens) (chain, as listed by the source): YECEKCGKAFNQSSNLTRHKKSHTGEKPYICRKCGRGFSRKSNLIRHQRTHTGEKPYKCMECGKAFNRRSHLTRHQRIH
Chain of ZFP 46 HSNK-QSHT-RSNR (Homo sapiens) (chain, as listed by the source): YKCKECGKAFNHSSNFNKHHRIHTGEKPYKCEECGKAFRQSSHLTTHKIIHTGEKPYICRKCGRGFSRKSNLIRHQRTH
Chain of ZFP 55 QSNV2-QSHR2-QSNR3 (Homo sapiens) (chain, as listed by the source): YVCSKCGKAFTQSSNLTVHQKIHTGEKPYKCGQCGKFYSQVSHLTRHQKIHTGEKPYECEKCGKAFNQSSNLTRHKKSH

B1: target 48 (dsDNA)
DNA 1: GCGGGGAGGG
DNA 2: CCCTCCCCGC
- activity [1]: 1.6 fold repression

B2: target 36 (dsDNA)
DNA 1: GAGGTTGAGG
DNA 2: CCTCAACCTC
- activity [2]: 1.8 fold repression

B3: target 50 (dsDNA)
DNA 1: AAAGTGGGGA
DNA 2: TCCCCACTTT
- activity [3]: 1.6 fold repression

B4: target 57 (dsDNA)
DNA 1: TGAGACGGAG
DNA 2: CTCCGTCTCA
- activity [4]: 1.5 fold repression

B5: target 64 (dsDNA)
DNA 1: GATGGGGTTT
DNA 2: AAACCCCATC
- activity [5]: 1.5 fold repression

B6: target 47 (dsDNA)
DNA 1: GCTGGAGGGG
DNA 2: CCCCTCCAGC
- activity [6]: 1.7 fold repression

B7: target 56 (dsDNA)
DNA 1: GGGGCTGAGG
DNA 2: CCTCAGCCCC
- activity [7]: 1.5 fold repression

B8: target 55 (dsDNA)
DNA 1: GAAGGAAAAT
DNA 2: ATTTTCCTTC
- activity [8]: 1.6 fold repression

B9: target 52 (dsDNA)
DNA 1: GAGTGAGGA
DNA 2: TCCTCACTC
- activity [9]: 1.6 fold repression

B10: target 35 (dsDNA)
DNA 1: GGGTGAGTG
DNA 2: CACTCACCC
- activity [10]: 1.9 fold repression

B11: target 46 (dsDNA)
DNA 1: GAGAGAGAC
DNA 2: GTCTCTCTC
- activity [11]: 1.7 fold repression

B12: target 58 (dsDNA)
DNA 1: GCTGGAAATT
DNA 2: AATTTCCAGC
- activity [12]: 1.5 fold repression

B13: target 43 (dsDNA)
DNA 1: GGAGAAGTAG
DNA 2: CTACTTCTCC
- activity [13]: 1.7 fold repression

B14: target 41 (dsDNA)
DNA 1: GGGGAGGAAA
DNA 2: TTTCCTCCCC
- activity [14]: 1.7 fold repression

B15: target 65 (dsDNA)
DNA 1: GGGGCGGAG
DNA 2: CTCCGCCCC
- activity [15]: 1.5 fold repression

B16: target 39 (dsDNA)
DNA 1: GGAGAGGCTC
DNA 2: GAGCCTCTCC
- activity [16]: 1.8 fold repression

B17: target 45 (dsDNA)
DNA 1: GTTCAAGAC
DNA 2: GTCTTGAAC
- activity [17]: 1.7 fold repression

B18: target 51 (dsDNA)
DNA 1: AGAAAAAATA
DNA 2: TATTTTTTCT
- activity [18]: 1.6 fold repression

B19: target 60 (dsDNA)
DNA 1: CAAGTAGAAG
DNA 2: CTTCTACTTG
- activity [19]: 1.5 fold repression

B20: target 62 (dsDNA)
DNA 1: GCTGCAGCGT
DNA 2: ACGCTGCAGC
- activity [20]: 1.5 fold repression

B21: target 53 (dsDNA)
DNA 1: GACAGGGGAG
DNA 2: CTCCCCTGTC
- activity [21]: 1.6 fold repression

B22: target 49 (dsDNA)
DNA 1: AGAAAAGGG
DNA 2: CCCTTTTCT
- activity [22]: 1.6 fold repression

B23: target 42 (dsDNA)
DNA 1: AGAGGAAGGT
DNA 2: ACCTTCCTCT
- activity [23]: 1.7 fold repression
